Test results: patent US20060269543A1 (Amgen, published 2006)

T1: IFN-γ (human, UniProt P01579 24-166, limits assumed)
T1 sequence (looked up): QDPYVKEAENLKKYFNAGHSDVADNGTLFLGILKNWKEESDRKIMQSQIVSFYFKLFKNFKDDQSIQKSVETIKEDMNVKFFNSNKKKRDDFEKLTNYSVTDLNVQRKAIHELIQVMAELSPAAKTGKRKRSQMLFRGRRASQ

B1: full length human IgG1 antibody against human IFN-γ, filtered purified bulk (FPB) (antibody, V domains shown)
VH: EVQLVQSGAEVKKPGESLKISCKGSGYNFTSYWIGWVRQMPGKGLELMGIIYPGDSDTRYSPSFQGQVTISADKSISTAYLQWSSLKASDTAMYYCGSGSYFYFDLWGRGTLVTVSS
VL: EIVLTQSPGTLSLSPGERATLSCRASQSVSSSYLAWYQQKPGQAPRLLIYGASSRATGIPDRFSGSGSGTDFTLTISRLEPEDFAVYYCQRSGGSSFTFGPGTKVDIKR
modifications: N-glycan sites at amino acids 28 and 297 of SEQ ID NO:17 (VH and CH2); heterogeneously sialylated
B2: full length human IgG1 antibody against human IFN-γ, purified isoform Peak +2 (antibody, V domains shown)
VH: B1 VH
VL: B1 VL
modifications: N-glycan sites at amino acids 28 and 297 of SEQ ID NO:17 (VH and CH2); sialylation isoform Peak +2
B3: full length human IgG1 antibody against human IFN-γ, purified isoform Peak +1 (antibody, V domains shown)
VH: B1 VH
VL: B1 VL
modifications: N-glycan sites at amino acids 28 and 297 of SEQ ID NO:17 (VH and CH2); sialylation isoform Peak +1
B4: full length human IgG1 antibody against human IFN-γ, purified isoform Peak -1 (antibody, V domains shown)
VH: B1 VH
VL: B1 VL
modifications: N-glycan sites at amino acids 28 and 297 of SEQ ID NO:17 (VH and CH2); sialylation isoform Peak -1
B5: full length human IgG1 antibody against human IFN-γ, purified isoform Peak 0 (antibody, V domains shown)
VH: B1 VH
VL: B1 VL
modifications: N-glycan sites at amino acids 28 and 297 of SEQ ID NO:17 (VH and CH2); sialylation isoform Peak 0
B6: full length human IgG1 antibody against human IFN-γ, purified isoform Peak -2 (antibody, V domains shown)
VH: B1 VH
VL: B1 VL
modifications: N-glycan sites at amino acids 28 and 297 of SEQ ID NO:17 (VH and CH2); sialylation isoform Peak -2

Each binder was assayed against T1, IFN-γ (assay: cell-based or functional assay).

Row | Binder | IC50, A549 cell proliferation assay (ALAMARBLUE); sample stored 3 months at pH 5, 4° C. | IC50, A549 cell proliferation assay (ALAMARBLUE); sample stored 3 months at pH 5, 37° C.
1 | B1 | 0.0023 µg/mL | 0.0027 µg/mL
2 | B2 | 0.002 µg/mL | 0.0032 µg/mL
3 | B3 | 0.0018 µg/mL | 0.0028 µg/mL
4 | B4 | 0.003 µg/mL | 0.0033 µg/mL
5 | B5 | 0.0024 µg/mL | 0.0033 µg/mL
6 | B6 | 0.0037 µg/mL | 0.0038 µg/mL
